Legend:
[1] = molecular target: Methanoculleus sp. schizorhodopsin (Methanoculleus sp. (metagenome-assembled genome)); experiment: cryo-EM structure
[2] = molecular target: Methanoculleus taiwanensis schizorhodopsin (Methanoculleus taiwanensis); experiment: cryo-EM structure

| Substance | stoichiometry N [1] | stoichiometry N [2] |
| --- | --- | --- |
| Methanoculleus sp. schizorhodopsin (natural protein) | 3 |  |
| Methanoculleus taiwanensis schizorhodopsin (natural protein) |  | 3 |

From article doi:10.1101/2025.10.20.683367
